Drawing on patent US5928941, this text covers activity (% decrease in promoter activity) for 1 substance.

In the data set the test system is RKLF full length (Homo sapiens). As to the kind of experiment: cell_activity. The settings on record: BAEC cotransfection, CAT repression.

Substance “CAC-tkCAT reporter (single beta-globin CACCC site)” gave an activity (% decrease in promoter activity) of 90.
